According to patent US12214052:

Molecular target: CD22
Experiment: BLI

Kd	Substance
59 nM	Epratuzumab Fab
51 nM	Epratuzumab Fab-Ferritin
